How the values were obtained:
Assay in all cases: cell-based or functional assay
[1] = molecular target: HIV-1 MGRM-C-008 Env (HIV-1)
[2] = molecular target: HIV-1 CMU02 envelope glycoprotein (Env) on pseudovirus (HIV-1)
[3] = molecular target: HIV-1 Env of pseudovirus TRJ0.58 (Acute), clade B (HIV-1)
[4] = molecular target: HIV-1 Env of pseudovirus APV_6, clade B (HIV-1)
[5] = molecular target: HIV-1 MGRM-F1-014 Env (pseudovirus) (HIV-1)
[6] = molecular target: aMLV envelope protein on pseudovirus
[7] = molecular target: HIV-1 Env of pseudovirus MGRM-Chronic-B-004, clade B (HIV-1)
[8] = molecular target: HIV-1 94UG103 envelope glycoprotein (Env) (HIV-1)
[9] = molecular target: HIV-1 MGRM-C-006 Env (HIV-1)
[10] = molecular target: HIV-1 MGRM-C-025 Env (HIV-1)
[11] = molecular target: HIV-1 92RW021 envelope glycoprotein (Env) on pseudovirus (HIV-1)
[12] = molecular target: HIV-1 Env of pseudovirus NL43, clade B (HIV-1)
[13] = molecular target: HIV-1 94UG103 envelope protein (Env) on pseudovirus (HIV-1)
[14] = molecular target: HIV-1 MGRM-F1-022 Env (pseudovirus) (HIV-1)
[15] = molecular target: HIV-1 MGRM-A-001 envelope glycoprotein (Env) (HIV-1)
[16] = molecular target: HIV-1 Env of isolate MGRM-D-024 (subtype D), on pseudovirus (HIV-1)
[17] = molecular target: HIV-1 Env of isolate MGRM-A-012 (clade A), on pseudovirus (HIV-1)
[18] = molecular target: HIV-1 Env of isolate 92UG037 (HIV-1)
[19] = molecular target: HIV-1 Env of isolate 93MW959 (HIV-1)
[20] = molecular target: HIV-1 Env of isolate MGRM-C-025 (HIV-1)
[21] = molecular target: HIV-1 Env of isolate MGRM-G-028 (HIV-1)
[22] = molecular target: HIV-1 Env of isolate MGRM-F1-004 (subtype F), on pseudovirus (HIV-1)
[23] = molecular target: HIV-1 Env of isolate SF162 (HIV-1) (UniProt P19550)
[24] = molecular target: HIV-1 Env of isolate MGRM-Chronic-B-003 (HIV-1)
[25] = molecular target: HIV-1 Env of isolate MGRM-Chronic-B-008 (HIV-1)
[26] = molecular target: HIV-1 JR-CSF Env K168A (HIV-1 (isolate JR-CSF)) (UniProt P20871)
[27] = molecular target: HIV-1 Env of isolate MGRM-D-022 (HIV-1)
[28] = molecular target: HIV-1 JR-CSF Env G471A (HIV-1 (isolate JR-CSF)) (UniProt P20871)
[29] = molecular target: HIV-1 JR-CSF Env N160K (HIV-1 (isolate JR-CSF)) (UniProt P20871)
[30] = molecular target: HIV-1 Env of isolate QH0692.42 (HIV-1)

Substance	IC50 [1]	IC50 (µg/ml), pseudovirus neutralization [3]	IC50 (µg/ml), pseudovirus neutralization [4]	IC50 (µg/ml), pseudovirus neutralization [5]	neutralization IC50 [6]	IC50 (µg/ml), pseudovirus neutralization [7]	IC50 (µg/ml), pseudovirus neutralization [8]	IC50 [9]	IC50 [10]	IC50 (µg/ml), pseudovirus neutralization [11]	IC50 (µg/ml), pseudovirus neutralization [12]	neutralization IC50 [13]	IC50 (µg/ml), pseudovirus neutralization [14]	IC50 (µg/ml), pseudovirus neutralization [15]	IC50, pseudovirus neutralization [16]	IC50, single-round pseudovirus neutralization [17]	neutralization IC50 [18]	IC50 [19]	IC50 [20]	IC50, pseudovirus neutralization [21]	also measured
2F5 (antibody)	> 50 µg/mL	> 50 µg/mL	0.25 µg/mL	15.1 µg/mL	> 50 µg/mL	2.41 µg/mL	1.92 µg/mL	> 50 µg/mL	> 50 µg/mL	4.16 µg/mL	2.02 µg/mL	3.79 µg/mL	1.26 µg/mL	> 50 µg/mL							IC90 (pseudovirus neutralization) [2]: 12.2 µg/mL
2G12 (antibody)	> 50 µg/mL	> 50 µg/mL	1.9 µg/mL	> 50 µg/mL	> 50 µg/mL	8.65 µg/mL	48.1 µg/mL	> 50 µg/mL	> 50 µg/mL	> 50 µg/mL	0.49 µg/mL	> 50 µg/mL	> 50 µg/mL	> 50 µg/mL							IC90 (pseudovirus neutralization) [2]: > 50 µg/mL
4E10 (antibody)	2.97 µg/mL	11.9 µg/mL	1.1 µg/mL	7.36 µg/mL	> 50 µg/mL	3.7 µg/mL	4.97 µg/mL	4.94 µg/mL	5.58 µg/mL	4.87 µg/mL	4.67 µg/mL	9.7 µg/mL	1.01 µg/mL	15.1 µg/mL							IC90 (pseudovirus neutralization) [2]: 13.4 µg/mL
1443_C16 (PG16) (TCN-116) (antibody)	> 50 µg/mL	1.16 µg/mL	0.29 µg/mL	0.01 µg/mL	> 50 µg/mL	0.01 µg/mL	0.04 µg/mL	2.62 µg/mL	0.04 µg/mL	0.11 µg/mL	0.02 µg/mL	0.008 µg/mL	0.08 µg/mL	> 50 µg/mL							IC90 (pseudovirus neutralization) [2]: > 50 µg/mL
1495_C14 (PGC14) (antibody)	> 50 µg/mL	> 50 µg/mL	23 µg/mL	> 50 µg/mL	> 50 µg/mL	> 50 µg/mL	> 50 µg/mL	> 50 µg/mL	> 50 µg/mL	> 50 µg/mL	40 µg/mL	> 50 µg/mL	> 50 µg/mL	> 50 µg/mL							
5114_A19 (PGT-128) (antibody)															0.067 µg/mL	0.025 µg/mL	0.006 µg/mL	0.045 µg/mL	10.5 µg/mL	0.008 µg/mL	IC50, pseudovirus neutralization [22]: 0.027 µg/mL; IC50 [23]: 0.007 µg/mL; IC50 [24]: 0.007 µg/mL; IC50 [25]: 0.143 µg/mL; Fold IC50 increase relative to wild-type [26]: 1.1 fold; IC50 [27]: > 50 µg/mL; Fold IC50 increase relative to wild-type [28]: 0.9 fold; Fold IC50 increase relative to wild-type [29]: 1 fold; IC50 [30]: 0.029 µg/mL
5136_H01 (PGT-131) (antibody)															> 50 µg/mL	> 50 µg/mL	0.048 µg/mL	> 50 µg/mL	> 50 µg/mL	0.466 µg/mL	IC50, pseudovirus neutralization [22]: 0.114 µg/mL; IC50 [23]: 0.025 µg/mL; IC50 [24]: > 50 µg/mL; IC50 [25]: > 50 µg/mL; Fold IC50 increase relative to wild-type [26]: 1.7 fold; IC50 [27]: > 50 µg/mL; Fold IC50 increase relative to wild-type [28]: 1.2 fold; Fold IC50 increase relative to wild-type [29]: 0.4 fold; IC50 [30]: > 50 µg/mL
5147_N06 (PGT-130) (antibody)															> 50 µg/mL	> 50 µg/mL	0.061 µg/mL	8.55 µg/mL	> 50 µg/mL	0.074 µg/mL	IC50 (ug/ml), neutralizing activity [2]: > 10 µg/mL; IC50, pseudovirus neutralization [22]: 0.023 µg/mL; IC50 [23]: 0.007 µg/mL; IC50 [24]: > 50 µg/mL; IC50 [25]: 5.18 µg/mL; Fold IC50 increase relative to wild-type [26]: 1.2 fold; IC50 [27]: > 50 µg/mL; Fold IC50 increase relative to wild-type [28]: 0.8 fold; Fold IC50 increase relative to wild-type [29]: 3.4 fold; IC50 [30]: > 50 µg/mL
5329_C19 (PGT-136) (antibody)															> 50 µg/mL	> 50 µg/mL	> 50 µg/mL	> 50 µg/mL	> 50 µg/mL	> 50 µg/mL	IC50, pseudovirus neutralization [22]: > 50 µg/mL; IC50 [23]: 0.482 µg/mL; IC50 [24]: > 50 µg/mL; IC50 [25]: > 50 µg/mL; IC50 [27]: > 50 µg/mL; IC50 [30]: > 50 µg/mL
5343_B08 (PGT-135) (antibody)															> 50 µg/mL	> 50 µg/mL	3.67 µg/mL	> 50 µg/mL	> 50 µg/mL	> 50 µg/mL	IC50, pseudovirus neutralization [22]: 0.211 µg/mL; IC50 [23]: 0.023 µg/mL; IC50 [24]: > 50 µg/mL; IC50 [25]: > 50 µg/mL; Fold IC50 increase relative to wild-type [26]: 0.4 fold; IC50 [27]: > 50 µg/mL; Fold IC50 increase relative to wild-type [28]: 3 fold; Fold IC50 increase relative to wild-type [29]: 7.7 fold; IC50 [30]: > 50 µg/mL
5345_I01 (PGT-137) (antibody)															> 50 µg/mL	> 50 µg/mL	> 50 µg/mL	> 50 µg/mL	> 50 µg/mL	> 50 µg/mL	IC50, pseudovirus neutralization [22]: 40.3 µg/mL; IC50 [23]: 3.41 µg/mL; IC50 [24]: > 50 µg/mL; IC50 [25]: > 50 µg/mL; IC50 [27]: > 50 µg/mL; IC50 [30]: > 50 µg/mL
b12 (antibody)	1.51 µg/mL	> 50 µg/mL	> 50 µg/mL	> 50 µg/mL	> 50 µg/mL	0.26 µg/mL	6.92 µg/mL	> 50 µg/mL	> 50 µg/mL	> 50 µg/mL	0.17 µg/mL	3.54 µg/mL	> 50 µg/mL	> 50 µg/mL							IC90 (pseudovirus neutralization) [2]: 34.2 µg/mL
